Data: patent publication US20250269048A1 (BIVICTRIX, published 2025)

T1: human CD7 (human, UniProt P09564 26-180, limits assumed)
T1 construct: The construct is not described
T1 sequence (looked up): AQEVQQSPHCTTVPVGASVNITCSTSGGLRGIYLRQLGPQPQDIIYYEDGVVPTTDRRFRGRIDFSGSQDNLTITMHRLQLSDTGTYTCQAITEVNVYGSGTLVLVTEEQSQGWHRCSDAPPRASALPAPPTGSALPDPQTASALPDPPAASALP

T2: human CD7 on cells (human, UniProt P09564 26-240)
T2 construct: whole, on cells; Target of the FACS and cell capture values and of the kill assays on CD7 single positive cells; also called CD7+ cells; Jurkat (CD33-/CD7+)
T2 sequence (looked up): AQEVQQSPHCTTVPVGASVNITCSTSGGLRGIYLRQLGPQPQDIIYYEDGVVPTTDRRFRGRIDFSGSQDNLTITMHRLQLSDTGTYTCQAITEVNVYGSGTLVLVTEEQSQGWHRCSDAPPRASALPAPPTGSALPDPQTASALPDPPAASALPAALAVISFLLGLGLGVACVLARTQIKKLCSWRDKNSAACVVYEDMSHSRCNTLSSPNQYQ


Assays:
human CD33 = molecular target: T3, human CD33 (human, UniProt P20138 18-259, limits assumed); test: SPR (Kd); value of the CD33 arm 33-PP-1 WT
T3 construct: The construct is not described
T3 sequence (P20138 18-259 limits assumed): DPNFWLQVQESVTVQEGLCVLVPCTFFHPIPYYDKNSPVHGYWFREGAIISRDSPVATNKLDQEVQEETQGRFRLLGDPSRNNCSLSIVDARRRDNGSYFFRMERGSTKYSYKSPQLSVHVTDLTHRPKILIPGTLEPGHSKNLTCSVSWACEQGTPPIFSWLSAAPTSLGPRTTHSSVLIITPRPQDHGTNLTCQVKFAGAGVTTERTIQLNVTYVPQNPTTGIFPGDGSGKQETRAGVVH

human CD7 [1] = molecular target: T1, human CD7; test: SPR (Kd); value of the CD7 arm 7-PP-6
human CD7 [2] = molecular target: T1, human CD7; test: SPR (Kd); value of the CD7 arm 7-PP-7
human CD7 on cells [3] = molecular target: T2, human CD7 on cells; test: FACS; reference 7-PP-1 WT (itself)
human CD7 [4] = molecular target: T1, human CD7; test: SPR
human CD7 on cells [5] = molecular target: T2, human CD7 on cells; test: FACS; cells not named
human CD7 [6] = molecular target: T1, human CD7; test: SPR; reference 7-AA-WT

Binder	Fold reduction in binding affinity vs 33-PP-1 WT (human CD33) [fold]	Fold reduction in binding affinity vs 7-PP-1 WT (human CD7 [1]) [fold]	Fold reduction in binding affinity vs 7-PP-1 WT (human CD7 [2]) [fold]	FACS fold reduction compared to PP WT (human CD7 on cells [3]) [fold]	Kd (human CD7 [4]) [nM]	FACS binding (human CD7 on cells [5])	Fold Reduction in binding affinity compared to WT (Kd) (human CD7 [6]) [fold]
BVX130 (bispecific antibody, bi-Fab; also called CD33-PP-1 WT/CD7-PP-6) heavy: QVQLQESGAELVKPGASVKLSCKASGYTFTSYWMHWVKQRPGQGLEWIGKINPSNGRTNYNEKFKSKATLTVDKSSSTAYMQLSSLTSEDSAVYYCARGGVYYALYYYALDYWGQGTTVTVSSASTKGPSVFPLAPSSKSTSGGTAALGCLVKDYFPEPVTVSWNSGALTSGVHTFPAVLQSSGLYSLSSVVTVPSSSLGTQTYCCNVNHKPSNTKVDKKVEPKSCDKT light: DIELTQSPATLSVTPGDSVSLSCRASQSISNNLHWYQQKSHESPRLLIKSASQSISGIPSRFSGSGSGTDFTLSINSVETEDFGMYFCQQSNSWPYTFGGGTKLEIKRTVAAPSVFIFPPSDEQLKSGTASVVCLLNNFYPREAKVQWKVDNALQSGNSQESVTEQDSKDSTYSLSSTLTLSKADYEKHKVYACEVTHQGLSSPVTKSFNRGEC VH: EVQLVQSGAEVKKPGSSVKVSCKASGYTITDSNIHWVRQAPGQSLEWIGYIYPYNGGTDYNQKFKNRATLTVDNPTNTAYMELSSLRSEDTAFYYCVNGNPWLAYWGQGTLVTVSS VL: DIQLTQSPSTLSASVGDRVTIICRASESLDNYGIRFLTWFQQKPGKAPKLLMYAASNQGSGVPSRFSGSGSGTEFTLTISSLQPDDFATYYCQQTKEVPWSFGQGTKLEIK	0	12.7	–	–	–	–	–
BVX140 (bispecific antibody, bi-Fab; also called CD33-PP-1 WT/CD7-PP-7) heavy: QVQLQESGAELVKPGASVKLSCKASGYTFTSYWMHWVKQRPGQGLEWIGKINPSNGGTNYNEKFKSKATLTVDKSSSTAYMQLSSLTSEDSAVYYCARGGVYYDLYYAALDYWGQGTTVTVSSASTKGPSVFPLAPSSKSTSGGTAALGCLVKDYFPEPVTVSWNSGALTSGVHTFPAVLQSSGLYSLSSVVTVPSSSLGTQTYCCNVNHKPSNTKVDKKVEPKSCDKT light: DIELTQSPATLSVTPGDSVSLSCRASQSISNNLHWYQQKSHESPRLLIKSASQSISGIPSRFSGSGSGTDFTLSINSVETEDFGMYFCQQSNSWPYTFGGGTKLEIKRTVAAPSVFIFPPSDEQLKSGTASVVCLLNNFYPREAKVQWKVDNALQSGNSQESVTEQDSKDSTYSLSSTLTLSKADYEKHKVYACEVTHQGLSSPVTKSFNRGEC VH: EVQLVQSGAEVKKPGSSVKVSCKASGYTITDSNIHWVRQAPGQSLEWIGYIYPYNGGTDYNQKFKNRATLTVDNPTNTAYMELSSLRSEDTAFYYCVNGNPWLAYWGQGTLVTVSS VL: DIQLTQSPSTLSASVGDRVTIICRASESLDNYGIRFLTWFQQKPGKAPKLLMYAASNQGSGVPSRFSGSGSGTEFTLTISSLQPDDFATYYCQQTKEVPWSFGQGTKLEIK	0	–	152	–	–	–	–
CD7-PP-1-WT CD7 binding arm (Fab, V domains shown, also called PP WT) VH: QVQLQESGAELVKPGASVKLSCKASGYTFTSYWMHWVKQRPGQGLEWIGKINPSNGRTNYNEKFKSKATLTVDKSSSTAYMQLSSLTSEDSAVYYCARGGVYYDLYYYALDYWGQGTTVTVSS VL: DIELTQSPATLSVTPGDSVSLSCRASQSISNNLHWYQQKSHESPRLLIKSASQSISGIPSRFSGSGSGTDFTLSINSVETEDFGMYFCQQSNSWPYTFGGGTKLEIKR	–	–	–	1	3.56	0.53	1.36
